Source: article PMC4583294

How the values were obtained:
[1] = target: HMGB1 lacking the acidic C-tail (HMGB1ΔC, residues 1-185) (rat)
[2] = target: HMGB1 protein, wild-type, reduced (residues 1-214) (rat)

Chain of HMGB1 lacking the acidic C-tail (HMGB1ΔC, residues 1-185) (rat) (P09429 1-185, stated change not applied): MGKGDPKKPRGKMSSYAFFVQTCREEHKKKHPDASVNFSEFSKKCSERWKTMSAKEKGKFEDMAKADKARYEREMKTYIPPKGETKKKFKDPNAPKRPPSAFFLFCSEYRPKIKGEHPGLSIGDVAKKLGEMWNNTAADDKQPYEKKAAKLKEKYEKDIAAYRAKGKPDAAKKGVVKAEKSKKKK

inhibition of HMGB1ΔC-mediated DNA bending (ligase-mediated circularization of a 123-bp DNA; 50 nM reduced HMGB1ΔC, 1-15 nM H1) [1]: 40% | inhibition of HMGB1-mediated DNA bending (ligase-mediated circularization of a 123-bp DNA; 50 nM reduced HMGB1, 1-15 nM H1) [2]: 90%
Substance: Recombinant mouse histone H1° (referred to as histone H1) (from UniProt P10922 1-194) (natural protein)
